The results in this text go back to paper PMC8106667 (Molecular cell, 2021).

T1: MBP-ORC1-230-400 wild type (human, UniProt Q13415 230-400)
T1 sequence (looked up): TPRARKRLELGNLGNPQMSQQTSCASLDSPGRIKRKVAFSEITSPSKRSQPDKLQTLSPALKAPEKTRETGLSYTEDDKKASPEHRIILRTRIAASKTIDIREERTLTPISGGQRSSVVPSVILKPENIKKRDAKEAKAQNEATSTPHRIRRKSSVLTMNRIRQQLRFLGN

T2: MBP-ORC1-230-400 A-A (Cy motif mutant) (human, UniProt Q13415 230-400, K235A | L237A)
T2 sequence (looked up): T1 sequence (looked up) with K6A, L8A

T3: MBP-ORC1 R105Q (human, UniProt Q13415 1-861, R105Q)
T3 sequence (looked up): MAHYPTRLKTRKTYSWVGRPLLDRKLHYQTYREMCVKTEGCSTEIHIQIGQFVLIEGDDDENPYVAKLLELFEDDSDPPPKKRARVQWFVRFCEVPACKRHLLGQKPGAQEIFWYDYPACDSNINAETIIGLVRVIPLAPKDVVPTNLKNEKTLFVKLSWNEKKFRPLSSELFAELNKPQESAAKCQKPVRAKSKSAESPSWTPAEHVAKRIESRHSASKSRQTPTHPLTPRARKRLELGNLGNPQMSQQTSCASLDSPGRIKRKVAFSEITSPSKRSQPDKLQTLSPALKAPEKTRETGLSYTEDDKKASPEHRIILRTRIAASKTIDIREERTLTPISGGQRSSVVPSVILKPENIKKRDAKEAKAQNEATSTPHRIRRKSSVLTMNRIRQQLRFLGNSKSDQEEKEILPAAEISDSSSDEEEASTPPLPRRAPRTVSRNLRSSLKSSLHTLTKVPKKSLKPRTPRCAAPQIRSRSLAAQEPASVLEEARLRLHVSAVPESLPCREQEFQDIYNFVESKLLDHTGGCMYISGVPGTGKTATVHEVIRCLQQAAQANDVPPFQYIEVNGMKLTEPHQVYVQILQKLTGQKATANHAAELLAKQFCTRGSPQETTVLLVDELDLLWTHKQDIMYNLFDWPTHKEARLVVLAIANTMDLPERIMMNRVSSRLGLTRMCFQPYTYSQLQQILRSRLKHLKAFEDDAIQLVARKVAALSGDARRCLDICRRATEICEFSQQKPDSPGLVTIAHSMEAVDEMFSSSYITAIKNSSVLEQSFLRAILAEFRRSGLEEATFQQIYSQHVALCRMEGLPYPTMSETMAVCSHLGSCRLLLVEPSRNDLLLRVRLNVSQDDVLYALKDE

T4: MBP-ORC1-PSM123 (Phosphorylation Site Mutant, S258A, S273A and T375A) (human, UniProt Q13415 1-861, S258A | S273A | T375A)
T4 sequence (looked up): T3 sequence (looked up) with Q105R, S258A, S273A, T375A

T5: MBP-ORC2 (human, UniProt Q13416 1-577)
T5 sequence (looked up): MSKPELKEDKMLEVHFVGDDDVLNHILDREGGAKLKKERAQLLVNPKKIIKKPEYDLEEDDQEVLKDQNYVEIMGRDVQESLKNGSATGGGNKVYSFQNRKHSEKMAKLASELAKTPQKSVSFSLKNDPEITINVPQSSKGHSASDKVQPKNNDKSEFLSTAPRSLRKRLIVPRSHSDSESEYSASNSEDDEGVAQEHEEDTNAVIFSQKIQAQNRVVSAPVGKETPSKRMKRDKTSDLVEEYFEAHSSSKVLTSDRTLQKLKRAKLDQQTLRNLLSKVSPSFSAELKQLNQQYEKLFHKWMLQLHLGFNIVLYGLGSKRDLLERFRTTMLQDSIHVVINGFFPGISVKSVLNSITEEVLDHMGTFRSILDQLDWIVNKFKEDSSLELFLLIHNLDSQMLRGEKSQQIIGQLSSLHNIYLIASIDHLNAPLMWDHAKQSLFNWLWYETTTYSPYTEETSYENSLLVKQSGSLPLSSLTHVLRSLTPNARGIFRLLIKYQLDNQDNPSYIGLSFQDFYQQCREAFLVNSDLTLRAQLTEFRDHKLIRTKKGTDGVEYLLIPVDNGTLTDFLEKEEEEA

T6: MBP-ORC1 wild type, full length (human, UniProt Q13415 1-861)
T6 sequence (looked up): T3 sequence (looked up) with Q105R

B1: ORC1-180-240-HIS6 wild type (domain or fragment, human, UniProt Q13415 180-240, looked up)
chain: QESAAKCQKPVRAKSKSAESPSWTPAEHVAKRIESRHSASKSRQTPTHPLTPRARKRLELG
B2: MBP-ORC1-350-400 wild type (domain or fragment, human, UniProt Q13415 350-400, looked up)
chain: SVILKPENIKKRDAKEAKAQNEATSTPHRIRRKSSVLTMNRIRQQLRFLGN
B3: GST-CDC6 wild type, full length (natural protein, human, UniProt Q99741 1-560, looked up)
chain: MPQTRSQAQATISFPKRKLSRALNKAKNSSDAKLEPTNVQTVTCSPRVKALPLSPRKRLGDDNLCNTPHLPPCSPPKQGKKENGPPHSHTLKGRRLVFDNQLTIKSPSKRELAKVHQNKILSSVRKSQEITTNSEQRCPLKKESACVRLFKQEGTCYQQAKLVLNTAVPDRLPAREREMDVIRNFLREHICGKKAGSLYLSGAPGTGKTACLSRILQDLKKELKGFKTIMLNCMSLRTAQAVFPAIAQEICQEEVSRPAGKDMMRKLEKHMTAEKGPMIVLVLDEMDQLDSKGQDVLYTLFEWPWLSNSHLVLIGIANTLDLTDRILPRLQAREKCKPQLLNFPPYTRNQIVTILQDRLNQVSRDQVLDNAAVQFCARKVSAVSGDVRKALDVCRRAIEIVESDVKSQTILKPLSECKSPSEPLIPKRVGLIHISQVISEVDGNRMTLSQEGAQDSFPLQQKILVCSLMLLIRQLKIKEVTLGKLYEAYSKVCRKQQVAAVDQSECLSLSGLLEARGILGLKRNKETRLTKVFFKIEEKEIEHALKDKALIGNILATGLP

What all share (assay): pull-down
In experiment [1] the target is B3.
The target of experiment [2] is T1, MBP-ORC1-230-400 wild type.
In experiment [3] the target is T2, MBP-ORC1-230-400 A-A (Cy motif mutant).
The target in experiment [4] is B1.
The target of another experiment is T3, MBP-ORC1 R105Q.
Experiment [5] concerns the target T4, MBP-ORC1-PSM123 (Phosphorylation Site …).
Another experiment addresses T5, MBP-ORC2.
Experiment [6] has as its target T6, MBP-ORC1 wild type, full length.

Where a chain is given by its changes, count along the chain named.

For the molecule B1, the binding result in experiment [1], in experiment [2] and in experiment [3] was “binds” each time.

As to B2, in experiment [4], the binding result was “binds”.

Turning to B3, the binding result (with MBP-ORC1 R105Q; in experiment [5]; with MBP-ORC2; in experiment [6]) was “binds” throughout.
